Results: the NTF2 design screens of Basanta et al. (2020)

Test: protease stability score; higher = more stable; yeast display proteolysis, trypsin and chymotrypsin;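 note: relative to predicted unfolded state with 0 unfolded-like and 1 meaning tenfold more protease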

“SEEKKWEDDFMEDFLRAFHTGDFHRLLELLDPHVRIEINFENRKIDLIGREEFEKWMRRVKNARFHVEHWHSINGVNFSDTVLRYGDKEQKTELIFHVYNGKVKHIDVEFH” gave a protease stability score of 2.26.

“SEEKQDVDEFIKRVIETLETGDWRNRHDLLDPNVRIDIDGVELIGRHIALELDWYFLRHARVRMYIRHVNVQGEYMDVDGRLHIHQGDKNIHIETRLIVHKINGRWLIKSIELR” gave a protease stability score of 2.87.

Sequence “SEEKRDSHQAIHLFIKNRVTGNWKDLYKNVDPHARLEIGDKHFHGRELFVRLMLELGVDHFDIESVDIQGDFIHIKGQIDVNGRTLDVELVAWKYNGRWYEHSVIIK” has a protease stability score of 1.16.

“SEEKRIDQHFTEQLDRLIETGDEEQLNKLADPHARLIFNGRTEHGREESHKLRHELLERWGHDRVHVELKDMEVQGDKLIVHTVIQINGVKFHVEIIVRKINGRWKMTEVRII” showed a protease stability score of 0.314.

“SEELEHAERLDRMIAKAYSTGDEDVFRELLDPHVKIHDEDHHSHGMEWIRYHIERFKNVRSSVEVRRYHVQGNKIFSDGVFRLQVGDKDITRRVLFVVLKVDGRWIMESIHIE” gave a protease stability score of 1.08.

“SEELELAKWLLEEWIRAVETGDERTLKELADPDVKMHIGDKNHIGWEEYVRFLRHLRITVRRMEVKHMHVFDGRIHIHGHFDIEINIGDKHLRRHHDVEIILVVVDGKLTSIEIRNH” gave a protease stability score of 1.5.

Work on “SEELRILVELVSKFYDAMKTGDEKTLKELADPNMRIIVGDKVLHGMESLKTHLKRIDHIYVHHFDYKKVDVQGDKVHVRGHSNLVLEFENHREEVIIHENWIVTKYNGRWSLESLEIR” yielded a protease stability score of 1.49.

“SEEMHWAKEFYKALLKSWRTGDEELIKDLMDPHVRLHYGDKELHGREEFVRFIQEHVSRVDHIDIHIDDMKLQGNKVHVDGIIIIHVNGRDINIRSEYIIYKVDGRWHLETVHIH” gave a protease stability score of 1.59.

“SEENEAAKLVIEKLNHSWKTGDWRLSEKLMDPDVRVHINGQDLHGREQARKFLEEIRLHMRDVKVKEIRIVDGRLETHGHVHIELIFDGRVFRIERDVESVVLKFNGKWTLESLEVI” showed a protease stability score of 1.21.

For “SEENEHLHHLMRLVIEMFETGDEDRWYKLADPNTRMEVDGREFIGREEVIKFLRNLGVNHFWIDDVDIINGRAHIRSTLRFNGQERDLNINLHFVDGKLKREKWIIR”, the protease stability score was 0.841.

Work on “SEENELAERFFKELRDHFETGDEDVLDEMADPNMKLHINGRNFHGMHVYSKLARWLVDHWRSEFKVRRIEVQGNKIIIDSQLTLHIDGQRIIHDTRMESEKVNGKWLLRQFIVV” yielded a protease stability score of 1.71.

With “SEENEVIHRVIYYWIRAMKTGDEHLVSRLFDPNARHEIDGVDHVGWEEILKFFRRFDHLHHFHVNHIESHGDKIILDGRVDGEVNGQHLRFHVEIISLKVNGRWINQSEHVH” the protease stability score was 1.81.

Sequence “SEEQDWLREALEIFEKTIHTGDEDTSKELADPHVRSIINGKDFVGMEIWTKILEELNKRYDHIELVFHKVENINGRVIIHGTDTIRVDGVERKIDTIIYARKVNGKWLSKSVEMR” has a protease stability score of 1.34.

With “SEEQEEMRKLLKEFWHHTQTGDEDSFKRLADPDVKLRIDGKNYHGREATEFFTRRFDVIHDLRIHHMTIQGDWVRLEGTMHIEVGNYHDTKDVRIIILKYNGRWVNHEVRIH” the protease stability score was 0.741.

“SEEQEHTREAMEVYLHLMHTGDWDRFRELVDPNVRMNINGVDLHGWEELTRFMEIFWRDLGFDHFKIHEMRIYGEKSHIRGESIIGDKSREVHIHVVIVNGRIKSEKFVET” gave a protease stability score of 0.83.

“SEEQEITEHFSHLWLEWYLTGDFHKMLKFADPNTKMHIGDKHDHGMERYQEYERRFLEQYKGAKIYIKTVEHYDGRVVIDNIFRFDGREYQLIIEIIVVDGRLKSVHSDMK” gave a protease stability score of 1.25.

“SEEQEKSEEFWRLVVEFLLTGDEHQILNLLDPNVLTEIGDKKYHGRELASEVLRRYADEIRLKEVELHDRDEVNGVLHLHTVVRGEYNGREINLESHWELEKVDGRWHIKRVEIR” showed a protease stability score of 1.6.

“SEEQELLKKLAHENHESQRTGDEDFFHKLADPDARIRVGDKEIHGMEKVLEFWKTFRRQFKGLVVHLEDSHVINGQTFLHRNVNFNGVEEELEIILVVVDGRIKSIEIHLRRR” gave a protease stability score of 0.653.

Sequence “SEEQENAERILRMWIHALETGDEHTQKRLLDPNVRDEVNGVEFHGRERAVKLMNDLHEELRIKDWIPRDIHLVNGVLILHVEVRLEVDGQSRNHEVIIVIKKVNGRWFIHRIHVR” has a protease stability score of 1.45.

“SEEQEVARDFFKILTHFHQTGNEEIVHELFDPNVRLHVGDKEVHGREEFIKVERELRTDDMHLRHVELQGEFIRIDVRAKGRVNGRDLEFHVHIVVRKVNGRWILTSLHIK” gave a protease stability score of 0.446.

With “SEEQHHLYSVFVRLIRNHWTGNERELHELADPNTRHTVGDKTYHGMEHVAWLLTEWVKEARLEIILRDVHVFDGRVESRIEFRLRYGDFKTTHEVRVEVNVVDGRLKEMEIDIN” the protease stability score was 1.43.

“SEEQHHVEKVLWDFSHALMTGDWETVEDLVDPNVRIHINGKDFHGREEFHRLVREIRVHVEINLKSVEHIDGQATADTDVIVHLDVGDKQIDRRTRTEVIQQKFDGKWLIHTIIHR” gave a protease stability score of 0.956.

Sequence “SEEQRLSEELFKRLVDYLLTGDWHSLKELLDPHVKVVVNGKEEIGRERMARHWLELHEKVPNMKSEFRLRYYEIQGDKAHYEVEIILHVNGRIRHIDIEVVMEKVDGRWMLHSITIR” has a protease stability score of 1.3.

For “SEEQTRLEEETRLLIELLTTGNEEEWARMFDPHARVDLHIGDKTIHSIGRENISELVRLLRHWLGVNHNHSTQLRVIDGVSVLHTESKVGDKHSKVTWIFVIVDGRLKTMEIRVRID”, the protease stability score was 1.33.

“SEERAKKVAKKLMEAFVKGNKDDAKDALQEDVQLHIAGTTYHGPKAVEKLIEFWQRVGVEVKVQEVRVKGNHVEIQTQVHLGDNTTTVRYKIQVEGDKVKKLQLNFSEEVFKQAKDG” gave a protease stability score of 2.
